# From publication PMC2677886 (Nucleic Acids Research, 2009)
# B1: (His)6-MRE11, individually purified (natural protein, human, UniProt P49959 1-708, looked up)
# chain: MSTADALDDENTFKILVATDIHLGFMEKDAVRGNDTFVTLDEILRLAQENEVDFILLGGDLFHENKPSRKTLHTCLELLRKYCMGDRPVQFEILSDQSVNFGFSKFPWVNYQDGNLNISIPVFSIHGNHDDPTGADALCALDILSCAGFVNHFGRSMSVEKIDISPVLLQKGSTKIALYGLGSIPDERLYRMFVNKKVTMLRPKEDENSWFNLFVIHQNRSKHGSTNFIPEQFLDDFIDLVIWGHEHECKIAPTKNEQQLFYISQPGSSVVTSLSPGEAVKKHVGLLRIKGRKMNMHKIPLHTVRQFFMEDIVLANHPDIFNPDNPKVTQAIQSFCLEKIEEMLENAERERLGNSHQPEKPLVRLRVDYSGGFEPFSVLRFSQKFVDRVANPKDIIHFFRHREQKEKTGEEINFGKLITKPSEGTTLRVEDLVKQYFQTAEKNVQLSLLTERGMGEAVQEFVDKEEKDAIEELVKYQLEKTQRFLKERHIDALEDKIDEEVRRFRETRQKNTNEEDDEVREAMTRARALRSQSEESASAFSADDLMSIDLAEQMANDSDDSISAATNKGRGRGRGRRGGRGQNSASRGGSQRGRADTGLETSTRSRNSKTAVSASRNMSIIDAFKSTRQQPSRNVTTKNYSEVIEVDESDVEEDIFPTTSKTDQRWSSTSSSKIMSQSQVSKGVDFESSEDDDDDPFMNTSSLRRNRR
# B2: (His)6-NBS1, individually purified (natural protein, human, UniProt O60934 1-754, looked up)
# chain: MWKLLPAAGPAGGEPYRLLTGVEYVVGRKNCAILIENDQSISRNHAVLTANFSVTNLSQTDEIPVLTLKDNSKYGTFVNEEKMQNGFSRTLKSGDGITFGVFGSKFRIEYEPLVACSSCLDVSGKTALNQAILQLGGFTVNNWTEECTHLVMVSVKVTIKTICALICGRPIVKPEYFTEFLKAVESKKQPPQIESFYPPLDEPSIGSKNVDLSGRQERKQIFKGKTFIFLNAKQHKKLSSAVVFGGGEARLITEENEEEHNFFLAPGTCVVDTGITNSQTLIPDCQKKWIQSIMDMLQRQGLRPIPEAEIGLAVIFMTTKNYCDPQGHPSTGLKTTTPGPSLSQGVSVDEKLMPSAPVNTTTYVADTESEQADTWDLSERPKEIKVSKMEQKFRMLSQDAPTVKESCKTSSNNNSMVSNTLAKMRIPNYQLSPTKLPSINKSKDRASQQQQTNSIRNYFQPSTKKRERDEENQEMSSCKSARIETSCSLLEQTQPATPSLWKNKEQHLSENEPVDTNSDNNLFTDTDLKSIVKNSASKSHAAEKLRSNKKREMDDVAIEDEVLEQLFKDTKPELEIDVKVQKQEEDVNVRKRPRMDIETNDTFSDEAVPESSKISQENEIGKKRELKEDSLWSAKEISNNDKLQDDSEMLPKKLLLTEFRSLVIKNSTSRNPSGINDDYGQLKNFKKFKKVTYPGAGKLPHIIGGSDLIAHHARKNTELEEWLRQEMEVQNQHAKEESLADDLFRYNPYLKRRR
# Target: RECQ5–CBD fusion protein (human, UniProt O94762 1-991)
# Sequence (O94762 whole entry, the tested form may be a part): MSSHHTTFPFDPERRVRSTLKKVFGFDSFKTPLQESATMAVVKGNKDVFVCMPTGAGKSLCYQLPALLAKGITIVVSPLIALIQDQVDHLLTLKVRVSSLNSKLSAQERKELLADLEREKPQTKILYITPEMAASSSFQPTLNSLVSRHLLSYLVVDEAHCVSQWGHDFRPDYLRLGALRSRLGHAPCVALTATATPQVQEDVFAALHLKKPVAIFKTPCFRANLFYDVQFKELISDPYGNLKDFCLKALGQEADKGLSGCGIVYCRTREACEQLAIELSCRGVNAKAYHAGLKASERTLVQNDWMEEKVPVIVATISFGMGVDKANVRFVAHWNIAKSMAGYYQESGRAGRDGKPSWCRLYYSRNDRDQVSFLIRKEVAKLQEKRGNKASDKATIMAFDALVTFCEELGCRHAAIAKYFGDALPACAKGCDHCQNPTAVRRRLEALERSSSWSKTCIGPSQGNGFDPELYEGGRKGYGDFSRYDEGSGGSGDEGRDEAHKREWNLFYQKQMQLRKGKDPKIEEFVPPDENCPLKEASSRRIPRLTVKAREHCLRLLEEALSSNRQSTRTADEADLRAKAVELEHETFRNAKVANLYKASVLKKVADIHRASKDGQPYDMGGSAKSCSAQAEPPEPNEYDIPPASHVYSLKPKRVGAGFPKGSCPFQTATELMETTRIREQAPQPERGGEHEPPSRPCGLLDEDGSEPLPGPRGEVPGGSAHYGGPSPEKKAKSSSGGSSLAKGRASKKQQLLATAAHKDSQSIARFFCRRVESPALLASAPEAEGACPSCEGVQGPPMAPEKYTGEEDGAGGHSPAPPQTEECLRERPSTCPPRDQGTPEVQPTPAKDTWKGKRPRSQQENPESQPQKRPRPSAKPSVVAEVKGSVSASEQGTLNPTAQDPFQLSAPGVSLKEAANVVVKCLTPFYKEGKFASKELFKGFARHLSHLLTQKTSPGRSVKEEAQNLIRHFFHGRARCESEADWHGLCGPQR
# Experiment: pull-down
row,Binder,binding result
1,B1,binds
2,B2,binds
